The record followed here is the RNAGym collection of RNA variant scans (doi:10.7554/elife.80360).

To fix the notation:
B1: HDV Ribozyme (parent)
chain: GGCCGGCAUGGUCCCAGCCUCCUCGCUGGCGCCGGCUGGGCAACAUUCCGAGGGGACCGUCCCCUCGGUAAUGGCGAAUGGGACCCA

Variants of B1 are the subject of the data set. Put plainly: self-cleavage, relative activity (ratio to wild type); higher = more cleavage; co-transcriptional.
In the case of U27C G76U, the self-cleavage was 0.883.

On to A8C C36A, for which the self-cleavage stood at 0.

For the variant C33A U65G, the self-cleavage was determined as 0.244.

In the case of C33A U65C, the self-cleavage was found to be 0.158.

For C14A G28U, the self-cleavage was 0.0733.

With C15U G50U, the self-cleavage was determined as 0.991.

Turning to C13U A77G, the self-cleavage was 0.399.

With G6C G52A, the self-cleavage is 0.369.

Regarding C14U C24U, the self-cleavage worked out at 0.658.

Take G35A G74C: the self-cleavage amounted to 0.208.

On to C19U C48G, for which the self-cleavage was 0.0594.

In the case of C19U C48A, the self-cleavage is 0.117.

For the variant U46A A51U, the self-cleavage turned out to be 0.536.

C61G C64A: the self-cleavage stood at 0.582.

Consider C4U U69A, for which the self-cleavage worked out at 0.623.

C7A C19U: the self-cleavage stood at 0.0906.

In the case of G50A G76C, the self-cleavage stood at 0.98.

G2U G38A: the self-cleavage amounted to 0.032.

In the case of G10A U69A, the self-cleavage amounted to 0.677.

Take G40U G53U: the self-cleavage is 0.75.

On to G2C G10C, for which the self-cleavage came to 0.

For the variant G52U G76C, the self-cleavage was determined as 0.921.

For the variant C63U A77C, the self-cleavage came to 0.352.

Take C22A G67A: the self-cleavage stood at 0.185.

As for C4G C26G, the self-cleavage stood at 0.306.

C4U U65A: the self-cleavage was 0.727.

In the case of C24G C32A, the self-cleavage came out at 0.

For the variant C24G C32G, the self-cleavage was 0.0504.

In the case of U69A U72G, the self-cleavage stood at 0.883.

G40A U60A: the self-cleavage worked out at 1.

As for G1A U37A, the self-cleavage stood at 0.161.

Consider C3A C84G, for which the self-cleavage was 0.158.

Take U27A G35A: the self-cleavage is 0.369.

Turning to G53C C63G, the self-cleavage is 0.973.

As to G10C U46G, the self-cleavage was 0.346.

Regarding C26A C84U, the self-cleavage was 0.854.

Turning to G28C U79C, the self-cleavage is 0.155.

Turning to G2A U9C, the self-cleavage stood at 0.113.

As to G28C C44G, the self-cleavage amounted to 0.

For the variant G68A G81A, the self-cleavage came to 0.389.

In the case of G40C C62G, the self-cleavage was 0.

For C66A G81A, the self-cleavage was 0.354.

As for C44G U47G, the self-cleavage was 0.475.

Consider C14U U65G, for which the self-cleavage was found to be 0.997.

With A16C G55U, the self-cleavage was found to be 0.425.

In the case of U37G C58U, the self-cleavage is 0.0504.

As for G54C C63U, the self-cleavage stood at 0.774.

In the case of U37G C63G, the self-cleavage came to 0.0615.

With U37G C63U, the self-cleavage is 0.151.

For the variant A8G C57G, the self-cleavage stood at 1.27.

On to G35C G73A, for which the self-cleavage came out at 0.0723.

For U12A G73C, the self-cleavage stood at 0.314.

Regarding G6C A83C, the self-cleavage amounted to 0.0875.

Turning to C21A G68A, the self-cleavage came to 0.0779.

Regarding G2U C15G, the self-cleavage was found to be 0.0282.

As for G28C G59U, the self-cleavage came to 0.0678.

On to C26U C48A, for which the self-cleavage came out at 0.917.

On to C26U C58U, for which the self-cleavage was determined as 1.16.

With G31U U69G, the self-cleavage worked out at 0.386.

With C4G A51U, the self-cleavage was 0.284.

For the variant U37C C49A, the self-cleavage was found to be 1.31.

Take A16C A70U: the self-cleavage stood at 0.415.

Take C19G A77G: the self-cleavage came out at 0.0426.

Consider C33A G34A, for which the self-cleavage came out at 0.166.

With C22A G52U, the self-cleavage came to 0.32.

Regarding G25A G31A, the self-cleavage turned out to be 0.0773.

Regarding G59C U72C, the self-cleavage was found to be 0.917.

On to C3G A70G, for which the self-cleavage turned out to be 0.475.

With C22G C64G, the self-cleavage was determined as 0.0723.

Consider A42C C44U, for which the self-cleavage was 0.161.

As to C4U G55U, the self-cleavage amounted to 0.639.

Regarding C30A C48U, the self-cleavage amounted to 0.533.

On to C33G A77U, for which the self-cleavage worked out at 0.106.

For G11C G82U, the self-cleavage is 0.104.

As for G35U A71G, the self-cleavage is 0.308.

In the case of A45G G82C, the self-cleavage worked out at 0.391.

On to U60C U65G, for which the self-cleavage was found to be 0.944.

With G6C C32G, the self-cleavage was found to be 1.1.

On to U9A G52A, for which the self-cleavage is 0.99.

A71C C86U: the self-cleavage is 0.665.

C41A C58U: the self-cleavage is 0.778.

In the case of U60C G80A, the self-cleavage amounted to 0.386.

Turning to C30A C57U, the self-cleavage worked out at 0.587.

On to C75U C84G, for which the self-cleavage stood at 0.136.

Take C14A G80A: the self-cleavage worked out at 0.565.

U27G G82A: the self-cleavage was 0.534.

Take C19U G68U: the self-cleavage stood at 0.168.

In the case of C30A C84A, the self-cleavage is 0.295.

Consider G17C C44A, for which the self-cleavage was found to be 0.

In the case of G50C C61G, the self-cleavage was 0.578.

Regarding C15A C84G, the self-cleavage amounted to 0.244.

Regarding G34C A87U, the self-cleavage was determined as 0.192.

On to A43U C44U, for which the self-cleavage was 1.07.

In the case of C36U G59U, the self-cleavage was found to be 0.806.

For the variant C22U C41A, the self-cleavage came to 0.674.

For C26U A42G, the self-cleavage turned out to be 0.902.

Regarding C32A C58A, the self-cleavage is 0.208.

Turning to G17C G55C, the self-cleavage is 0.262.

Consider C24G A43G, for which the self-cleavage was 0.0354.

Regarding G28U A87C, the self-cleavage is 0.113.

In the case of C61U A70C, the self-cleavage came to 0.892.

As to C13A U37A, the self-cleavage came out at 0.

As for G25A G38A, the self-cleavage was determined as 0.0536.

As to G55U C85A, the self-cleavage was determined as 1.09.

For U46G A71C, the self-cleavage was determined as 0.982.

Regarding G17A A87G, the self-cleavage was determined as 0.745.

For G54A C66U, the self-cleavage was 0.933.

For the variant G54A C66A, the self-cleavage was found to be 0.634.

On to G25U G52U, for which the self-cleavage is 0.234.

With G10U U47A, the self-cleavage was determined as 0.514.

On to A8G C26U, for which the self-cleavage was found to be 1.16.

G50A C64U: the self-cleavage worked out at 1.26.

On to G39C A71U, for which the self-cleavage is 0.229.

C22A U69A: the self-cleavage came out at 0.284.

As to A45U G55A, the self-cleavage is 0.594.

Consider G10U A51G, for which the self-cleavage was found to be 0.707.

Consider C18G G28C, for which the self-cleavage was 0.0573.

For the variant G11A C58A, the self-cleavage amounted to 0.554.

On to C49U G80A, for which the self-cleavage stood at 0.4.

Turning to U9C C41U, the self-cleavage stood at 1.05.

In the case of A42G C86A, the self-cleavage is 0.697.

For the variant A70G C75A, the self-cleavage was 0.201.

On to A70U A83U, for which the self-cleavage was determined as 0.237.

As to G38C C86A, the self-cleavage is 0.136.

Regarding A16U A56G, the self-cleavage amounted to 0.831.

Turning to A45G C61U, the self-cleavage amounted to 0.888.

Turning to G1U C4A, the self-cleavage worked out at 0.277.

In the case of U12C U27C, the self-cleavage worked out at 0.222.

As to G2U A83C, the self-cleavage worked out at 0.0594.

As for A45G G76A, the self-cleavage came to 0.959.

With G2A A83C, the self-cleavage was 0.0583.

For the variant U46C A51C, the self-cleavage was 0.504.

As for C49A C58G, the self-cleavage was determined as 0.988.

With C7A A71G, the self-cleavage was found to be 0.584.

In the case of G5C U23G, the self-cleavage was determined as 0.0615.

For the variant G1U C63G, the self-cleavage was determined as 0.453.

On to G59C C61G, for which the self-cleavage worked out at 0.927.

Turning to G5U G31A, the self-cleavage was found to be 0.135.

U20A C24G: the self-cleavage was 0.0449.

Regarding G34U C41A, the self-cleavage is 0.133.

Consider A16C A42G, for which the self-cleavage is 0.229.

In the case of C3A G67C, the self-cleavage is 0.61.

C19A G40U: the self-cleavage worked out at 0.0437.

On to G82C A83C, for which the self-cleavage amounted to 0.284.

Consider G50C C63U, for which the self-cleavage was found to be 0.997.

On to G5A U20C, for which the self-cleavage came to 0.

Turning to A42U C66U, the self-cleavage was 0.61.

For the variant G10C C22A, the self-cleavage is 0.108.

Turning to C24A G67U, the self-cleavage came to 0.831.

With C41U A45C, the self-cleavage worked out at 0.569.

In the case of U20G U79A, the self-cleavage amounted to 0.175.

As to G35C G38C, the self-cleavage worked out at 0.128.

On to U20G C24U, for which the self-cleavage stood at 0.

Consider A43C A87C, for which the self-cleavage amounted to 0.407.

Turning to C3U U46C, the self-cleavage came out at 0.567.

As to G55C A83G, the self-cleavage turned out to be 0.767.

Take G73A C85A: the self-cleavage came to 0.882.

C7G G28C: the self-cleavage is 0.

Consider U37A A78G, for which the self-cleavage was 0.131.

With C18A G76C, the self-cleavage came to 0.14.

In the case of G59C A71C, the self-cleavage turned out to be 0.677.

On to C13U C41U, for which the self-cleavage was 0.323.

C18G A45U: the self-cleavage was 0.217.

On to G6A U65A, for which the self-cleavage came out at 0.54.

Consider G6A C33G, for which the self-cleavage is 0.0536.

As for G17U A42C, the self-cleavage worked out at 0.125.

As to C30G C58A, the self-cleavage stood at 0.0386.
